Target: T1, MleR (Streptococcus mutans UA159?) (UniProt Q8DWC9)
T1 sequence: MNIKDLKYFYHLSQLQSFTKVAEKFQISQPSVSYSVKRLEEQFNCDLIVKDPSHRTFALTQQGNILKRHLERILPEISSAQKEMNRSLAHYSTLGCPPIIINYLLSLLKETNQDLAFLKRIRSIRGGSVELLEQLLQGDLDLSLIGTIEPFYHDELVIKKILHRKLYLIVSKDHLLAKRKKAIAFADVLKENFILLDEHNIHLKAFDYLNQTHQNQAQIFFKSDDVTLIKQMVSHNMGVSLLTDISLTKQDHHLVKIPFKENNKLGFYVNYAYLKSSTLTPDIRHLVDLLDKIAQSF
Assay: EMSA
Settings: 20 mM Tris pH 7.5, 100 mM KCl, 2 mM EDTA, 10% glycerol, ~100 ng MleR, equal amount of competitor DNA (EP10/11 at 75 ng/ul), 20 min ambient temperature; 4.5% …

GGTATCTTTGCGGCTATGGATATCACAGGTGAAAAATTGACTGATCAAGTCTATCTCTGTTACGGTGGCGGTACAGCAGGTGCGGGTATTGCCTCTCGTGTCTTGCGTGAAA (double strand) [internal mleS fragment (137qF/R)]
binding: no binding

Source: publication PMC2834670
